These results are taken from paper PMC4784909, “The Structural Basis of Coenzyme A Recycling in a Bacterial Organelle” (PLoS Biology, 2016).

Read-outs that look alike come from different tables or passages of the source.

By stoichiometry N is commonly meant the number of molecules, sites or subunits per partner or assembly.

For series [1], the target named is T1, rPduLΔEP (Rhodopseudomonas palustris, UniProt Q21A54). Put plainly: X-ray crystal structure, […] Å. In kind it is binding. Also noted: gene pduL; C-terminal 6xHis, codon optimized, E. coli BL21(DE3); dimer; contains 2 Zn. The settings on record: CoA co-purified from E. coli; sulfur coordinates Zn1 of di-zinc active site.
Series [2] deals with T1, rPduLΔEP. Also noted: gene pduL. To be noted: crystals soaked 2 d in sodium phosphate pH 7.0; bridges both Zn in active site, CoA dissociated.
The target in series [3] is pPduL, full length (PduL from the pvm locus of Planctomyces limnophilus) (Planctomyces limnophilus). The series can be described thus: SEC; post-nickel affinity protein on HiLoad 26/60 Superdex 200 preparative column, pooled fractions (1-20 mg/mL) on Superdex 200 10/300 GL analytical column; 20 mM Tris pH 7.4, 50 mM NaCl. A general note: In gel filtration, larger molecules generally elute earlier.

Series [4] shares this target. Described as above. This is another data set of the same source.
Series [5] deals with the molecule itself. Described as above.
Series [6] deals with the molecule itself. Put plainly: SEC-MALS; Superdex S200 10/300 GL, 1 mg/ml protein injected, 0.5 ml/min, 20 mM Tris, 50 mM NaCl, pH 7.4.

As to `CC(C)(COP(=O)(O)OP(=O)(O)OC[C@H]1O[C@@H](n2cnc3c(N)ncnc32)[C@H](O)[C@@H]1OP(=O)(O)O)[C@@H](O)C(=O)NCCC(=O)NCCS` [Coenzyme A], at rPduLΔEP [1], the “X-ray crystal structure, 1.54 Å” value was “tetrahedral coordination state with His48, His50, Glu109, and the CoA sulfur”.
For `O=P(O)(O)O` [phosphate], the “X-ray crystal structure, phosphate soak, 2.10 Å” value at rPduLΔEP [2] was “the CoA dissociates, and density for a phosphate molecule is visible at the active site”.
Regarding “pPduL, full length (PduL from the pvm locus of Planctomyces limnophilus) (enzyme)”, the stoichiometry N in series [3] was 6; in series [4] it was 2.

B1: rPduL, full length (PduL from the grm3 locus of Rhodopseudomonas palustris BisB18) (enzyme, UniProt Q21A54 1-226, looked up)
chain: MDMQQETIERIIRQVLGQVGPAGGSIATLSGDAGVDPFQVAVGVSNRHIHLSRTDMDTLFGPGAELQRKKAMKQPGQFAAEETVTLKGPKGSLSKVRVLGPLRRETQVEVSVADGFALGITPPLRQSGQLDDTPGLTIIGPQGSVTKDHGVIVAQRHIHMHPSTAAKLGLRNGDEVDVEAGGERGGVMHRVLIRVAEASADEMHIDVEEANALCLKNDDVVRICKK
notes: PduL phosphotransacylase, grm3 locus, Rhodopseudomonas palustris BisB18, with its N-terminal encapsulation peptide; Two oligomeric states by SEC (about a dimer and a higher oligomer); six subunits by SEC-MALS; also called rPduL hexamer; wildtype construct; source: E. coli BL21(DE3), purified (HisTrap, Superdex 200)
Turning to B1, the entries for the “stoichiometry N” value in series [5] and in series [6] were roughly 2 and 6, respectively.

B2: rPduLΔEP (PduL from the grm3 locus of Rhodopseudomonas palustris BisB18, N-terminal putative encapsulation peptide removed) (enzyme, UniProt Q21A54 34-226, looked up)
chain: GVDPFQVAVGVSNRHIHLSRTDMDTLFGPGAELQRKKAMKQPGQFAAEETVTLKGPKGSLSKVRVLGPLRRETQVEVSVADGFALGITPPLRQSGQLDDTPGLTIIGPQGSVTKDHGVIVAQRHIHMHPSTAAKLGLRNGDEVDVEAGGERGGVMHRVLIRVAEASADEMHIDVEEANALCLKNDDVVRICKK
notes: PduL phosphotransacylase, grm3 locus, Rhodopseudomonas palustris BisB18; N-terminal putative EP (33 amino acids) removed; the crystallized construct begins with M-G-V; The construct begins with M-G-V; Gene codon optimized and synthesized with the 6xHis tag; no tag cleavage step is described; Crystals hold CoA (or phosphate) and two zinc ions per chain; also called truncated rPduL; Pdul-His; …
On to B2, for which the “stoichiometry N” value in series [5] turned out to be 2.
